Results on one protein are retold here after paper PMC4176176, “The CRISPR-associated Cas4 protein Pcal_0546 from Pyrobaculum calidifontis contains a [2Fe-2S] cluster: crystal structure and nuclease activity” (Nucleic Acids Research, 2014).

The data set concerns the molecule itself. Briefly: SEC; size-exclusion chromatography of the purified protein on a Superdex S200 10/300 GL column. A general note: In gel filtration, larger molecules generally elute earlier.

B1: Cas4 protein SSO1391 from Sulfolobus solfataricus (enzyme, UniProt Q97YD4 1-291, looked up)
chain: MFFTHSDMLLLSKRIKKLPKNVDEELRGWNWSEPPVYTRSLSQVSISEMVYCSTLRNVYLKVKGFRGEIGRQILQGSLIHTIYAIGIEAIKRFIYSRESIDGSTLRTLMGDEFYSLLKDLREEEGIYAKVLWDHITNIYSAELDRVRSKFTNLTRDSLVSQVVPFYVEFPVDGSLLGLTNLRVDAFIPHLPLIAEMKTGKYRYTHELSLAGYALAIESQYEIPIDFGYLCYVTVTEKEVKNNCKLIPISDSLRSEFLDMRDKAQDIMDKGVDPGIAKDCESDCMFYKVCHP
notes: Cas4 protein SSO1391 (DUF911 family), Sulfolobus solfataricus; predicted molecular mass 35.9 kDa
In the case of B1, the stoichiometry N (usually a count of units in the complex or per binding partner) was 2.
